Results taken from paper PMC6127106, “Apolipoprotein A-IV binds αIIbβ3 integrin and inhibits thrombosis” (Nature Communications, 2018).

Target: purified human platelet αIIbβ3 integrin (human, UniProt P05106 27-788)
Assay: ELISA; competition: αIIbβ3 (1 µg) immobilised on the plate, Fg 1 µM with apoA-IV 0–10 µM; TBS, 0.05% Tween-20, 1 mM each MgCl2, MnCl2, CaCl2; 1 h at 37 °C; anti-fibrinogen IgG and anti-mouse IgG-HRP
Conditions: both partners purified

B1: recombinant human apoA-IV (ligand, UniProt P06727 21-396, looked up)
chain: EVSADQVATVMWDYFSQLSNNAKEAVEHLQKSELTQQLNALFQDKLGEVNTYAGDLQKKLVPFATELHERLAKDSEKLKEEIGKELEELRARLLPHANEVSQKIGDNLRELQQRLEPYADQLRTQVSTQAEQLRRQLTPYAQRMERVLRENADSLQASLRPHADELKAKIDQNVEELKGRLTPYADEFKVKIDQTVEELRRSLAPYAQDTQEKLNHQLEGLTFQMKKNAEELKARISASAEELRQRLAPLAEDVRGNLRGNTEGLQKSLAELGGHLDQQVEEFRRRVEPYGENFNKALVQQMEQLRQKLGPHAGDVEGHLSFLEKDLRDKVNSFFSTFKEKESQDKTLSLPELEQQQEQQQEQQQEQVQMLAPLES
notes: apolipoprotein A-IV, human; also called rH-ApoA-IV; rH-apoA-IV; source: E. coli, purified (His GraviTrap IMAC, tag cut with TEV protease); not shown: His6, N-terminal, cleaved
IC50: 1.32 µM
